PMC5327383, “Pneumococcal galactose catabolism is controlled by multiple regulators acting on pyruvate formate lyase” (Scientific Reports, 2017)
pKd: −log10 of the molar value. “And” between values parts separate entries of the source, which are not always exact repeats. Identical values can stand only once.

Assays:
Assay in all cases: EMSA
[1] = biological target: T1, GlnR (Streptococcus pneumoniae D39) (UniProt A0A0H2ZRB1); conditions: 5X FY buffer: 20 mM Tris-HCl pH 7.5, 30 mM KCl, 1 mM DTT, 1 mM EDTA, 10% glycerol; room temperature 20 min, 20 ul, ~30 ng DNA, 0.1-0.5 uM protein; 8%
T1 sequence: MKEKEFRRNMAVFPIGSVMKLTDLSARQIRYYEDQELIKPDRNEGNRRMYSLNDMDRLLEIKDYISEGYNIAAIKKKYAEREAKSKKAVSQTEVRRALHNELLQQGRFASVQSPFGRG

[2] = biological target: CcpA (Streptococcus pneumoniae D39) (UniProt A0A0H2ZQ65); conditions: 5X FY buffer: 20 mM Tris-HCl pH 7.5, 30 mM KCl, 1 mM DTT, 1 mM EDTA, 10% glycerol; room temperature 20 min, 20 ul, ~30 ng DNA, 0.1-0.5 uM protein; 8%
[3] = biological target: T2, GntR (Streptococcus pneumoniae D39) (UniProt A0A0H2ZQS8); conditions: 5X FY buffer: 20 mM Tris-HCl pH 7.5, 30 mM KCl, 1 mM DTT, 1 mM EDTA, 10% glycerol; room temperature 20 min, 20 ul, ~30 ng DNA, 0.1-0.5 uM protein; 8%
T2 sequence: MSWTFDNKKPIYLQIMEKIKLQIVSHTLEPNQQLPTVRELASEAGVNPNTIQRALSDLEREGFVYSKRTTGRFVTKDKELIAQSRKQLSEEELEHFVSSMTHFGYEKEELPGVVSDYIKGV

[4] = tested on: CcpA (Streptococcus pneumoniae D39); conditions: 5X FY buffer: 20 mM Tris-HCl pH 7.5, 30 mM KCl, 1 mM DTT, 1 mM EDTA, 10% glycerol, room temperature 20 min, 20 ul, ~30 ng DNA, 0.1-0.5 uM protein, 8%
[5] = tested on: GlnR (Streptococcus pneumoniae D39); conditions: 5X FY buffer: 20 mM Tris-HCl pH 7.5, 30 mM KCl, 1 mM DTT, 1 mM EDTA, 10% glycerol, room temperature 20 min, 20 ul, ~30 ng DNA, 0.1-0.5 uM protein, 8%

AAGTGCAAAATCCCTATTTTTACACTTTCTTTTCTAAAACAGTCTATATTTTATTTCAAACTGTATTATATTTTTGAAAAAAATAAAGTCCTTTT (double strand) [PpflB(cre1-)]
binding [1]: no binding | binding [2]: no binding

ATGACAGAAGAAATCAAAAATCTGCAGGCACAGGATTATGATGCCAGTCAAATTCAAGTTTTAGAGGGCTTAGAGGCTGTTCGTATGCGTCCAGG (double strand) [gyrB]
binding [1]: no binding | binding [2]: no binding

CAGTTTGAAATAAAATATAGACTGTTTTAGAAAAGAAAGTGTAAAAATAGGGATTTTGCACTTGTTGAAATCGGTTACTTTATGGTATACTTGTC (double strand) [PpflB]
pKd [1]: 6.51 | binding [3]: binds | pKd [2]: 5.90 and 6.46

GTGAAAATTTCGTTTTCATATTTCTACTTATTCCATTCTATCACTAATTGTAAACACTTTCAAGTGTTTTTTGAAGATTGATTGAAAAAATTTCA (double strand) [PccpA]
binding [1]: binds | binding [3]: no binding | binding [2]: binds

GTTACCTTCCTTGAAAACGTTTTATAGTTTTATTATATCACGACTTGAAGGAAAAACAAGATTTTTGCCTATTTTTTAGAAAGCAATCTGTTTTTC (double strand) [PpflA]
binding [1]: binds | binding [3]: no binding | binding [2]: binds

PpflB
pKd ([4]; 10 mM sodium formate): 6.46 | pKd ([4]; no formate): 5.90 | pKd ([5]; 10 mM sodium formate): 6.10 | pKd ([5]; no formate): 6.51

TAATCTGATGATAGATTGAAAATGAAATTGAAAAACAGATTGCTTTCTAAAAAATAGGCAAAAATCTTGTTTTTCCTTCAAGTCGTGATATAATAA (double strand) [PpflA(cre1-)]
binding [1]: binds more weakly | binding [2]: binds more weakly
